Laboratory results reported in patent US20240261333A1 (published 2024).

Columns and labels:
[1] = biological target: T1, CHCHD3 (human, UniProt Q9NX63 2-227, limits assumed); assay: co-IP with anti-FLAG, C-FLAG B3GNT2, mass spectrometry
T1 construct: also called NP_001304106.1 (+1)
T1 sequence (looked up): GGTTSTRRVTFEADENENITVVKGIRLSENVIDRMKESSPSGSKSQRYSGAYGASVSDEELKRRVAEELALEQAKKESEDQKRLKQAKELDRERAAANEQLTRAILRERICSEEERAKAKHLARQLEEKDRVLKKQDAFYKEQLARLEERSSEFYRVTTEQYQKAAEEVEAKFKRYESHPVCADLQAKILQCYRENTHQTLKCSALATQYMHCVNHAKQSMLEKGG
Procedure: (§1) Cells were plated in 10-cm cell culture dishes and grown to 60-80% confluency. For each condition, two biological replicates were harvested for co-IP. Cells were washed with PBS and 4 mL of lysis buffer (20 mM HEPES, 1% Triton X-100, 150 mM NaCl, 1 mM EDTA, and 10% glycerol) containing protease inhibitor cocktail was added. Cells were scraped and lysate was incubated at 4° C. under rotary agitation for 1 h. Lysate was centrifuged at 14,000×g for 10 min at 4° C. Supernatant was transferred to a new tube and an aliquot was taken as the input. […] For Western blots, 10 μg/mL Chicken Anti-FLAG (Aves labs ET-DY100) and IgY control (R&D Systems AB-101-C) antibodies were biotinylated (Thermo Fisher Scientific 90407) and added to the respective conditions. Lysates with antibodies were incubated at 4° C. under rotary agitation overnight. For each mL of lysate, 50 μL of Pierce Protein A/G Magnetic Beads (Mass spectrometry; Thermo Fisher Scientific 88803) or Pierce Streptavidin Magnetic Beads (Western blot; Thermo Fisher Scientific 88817) was washed twice with lysis buffer. Lysates with antibodies were added to the beads and incubated at 4° C. under rotary agitation for 4 h. Beads were washed with lysis buffer 3 times and resuspended in lysis buffer for storage.
(§2) Magnetic beads were resuspended in 100 mM Tris pH 7.8, reduced, alkylated and digested with trypsin at 37° ° C. overnight. This solution was subjected to solid phase extraction to concentrate the peptides and remove unwanted reagents followed by injection onto a Shimadzu HPLC with fraction collector. Eight fractions were collected and after concentration were injected on a Waters NanoAcquity HPLC equipped with a self-packed Aeris 3 μm C18 analytical column 0.075 mm by 20 cm, (Phenomenex). Peptides were eluted using standard reverse-phase gradients. The effluent from the column was analyzed using a Thermo Orbitrap Elite mass spectrometer (nanospray configuration) operated in a data dependent manner for 54 minutes. The resulting fragmentation spectra were correlated against the known database using Proteome Discover 1.4 (Thermo Fisher Scientific).

[2] = biological target: T2, SRSF6 (human, UniProt Q13247 1-344); assay: as above
T2 construct: also called NP_006266.2
T2 sequence (looked up): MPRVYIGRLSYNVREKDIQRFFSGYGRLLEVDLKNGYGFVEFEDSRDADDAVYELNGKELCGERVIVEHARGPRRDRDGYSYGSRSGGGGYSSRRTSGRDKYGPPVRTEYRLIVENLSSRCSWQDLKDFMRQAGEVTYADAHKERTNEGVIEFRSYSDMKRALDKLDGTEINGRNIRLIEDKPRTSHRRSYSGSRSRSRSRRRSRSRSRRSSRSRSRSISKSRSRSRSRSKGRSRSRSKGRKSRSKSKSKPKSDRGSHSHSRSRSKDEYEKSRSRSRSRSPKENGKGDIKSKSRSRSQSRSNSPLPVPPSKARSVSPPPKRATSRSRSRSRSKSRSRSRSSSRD
Procedure: as §1, §2

[3] = biological target: T3, SLC27A4 (human, UniProt Q6P1M0 1-643); assay: co-IP with anti-FLAG, mass spectrometry; lysate of cells with N-FLAG B3GNT2
T3 construct: also called NP_005085.2
T3 sequence (Q6P1M0 whole entry): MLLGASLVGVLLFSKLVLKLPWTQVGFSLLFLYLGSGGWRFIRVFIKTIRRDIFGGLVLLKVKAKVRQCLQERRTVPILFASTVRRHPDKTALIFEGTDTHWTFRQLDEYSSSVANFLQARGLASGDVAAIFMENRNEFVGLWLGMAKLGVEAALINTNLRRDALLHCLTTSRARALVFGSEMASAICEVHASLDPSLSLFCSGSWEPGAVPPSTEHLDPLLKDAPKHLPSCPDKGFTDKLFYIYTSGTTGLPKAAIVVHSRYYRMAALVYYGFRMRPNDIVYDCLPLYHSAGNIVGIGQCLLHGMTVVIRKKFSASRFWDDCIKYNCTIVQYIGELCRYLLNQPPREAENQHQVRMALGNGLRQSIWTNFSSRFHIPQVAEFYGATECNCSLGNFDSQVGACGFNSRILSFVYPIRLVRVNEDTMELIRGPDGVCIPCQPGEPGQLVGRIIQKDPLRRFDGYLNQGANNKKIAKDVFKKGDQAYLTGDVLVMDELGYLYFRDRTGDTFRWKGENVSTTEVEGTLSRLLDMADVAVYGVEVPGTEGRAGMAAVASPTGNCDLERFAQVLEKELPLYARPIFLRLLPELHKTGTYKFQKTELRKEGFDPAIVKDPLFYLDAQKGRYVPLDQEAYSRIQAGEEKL

[4] = biological target: T4, RARS (human, UniProt P54136 1-660); assay: as above
T4 construct: also called NP_002878.2
T4 sequence (looked up): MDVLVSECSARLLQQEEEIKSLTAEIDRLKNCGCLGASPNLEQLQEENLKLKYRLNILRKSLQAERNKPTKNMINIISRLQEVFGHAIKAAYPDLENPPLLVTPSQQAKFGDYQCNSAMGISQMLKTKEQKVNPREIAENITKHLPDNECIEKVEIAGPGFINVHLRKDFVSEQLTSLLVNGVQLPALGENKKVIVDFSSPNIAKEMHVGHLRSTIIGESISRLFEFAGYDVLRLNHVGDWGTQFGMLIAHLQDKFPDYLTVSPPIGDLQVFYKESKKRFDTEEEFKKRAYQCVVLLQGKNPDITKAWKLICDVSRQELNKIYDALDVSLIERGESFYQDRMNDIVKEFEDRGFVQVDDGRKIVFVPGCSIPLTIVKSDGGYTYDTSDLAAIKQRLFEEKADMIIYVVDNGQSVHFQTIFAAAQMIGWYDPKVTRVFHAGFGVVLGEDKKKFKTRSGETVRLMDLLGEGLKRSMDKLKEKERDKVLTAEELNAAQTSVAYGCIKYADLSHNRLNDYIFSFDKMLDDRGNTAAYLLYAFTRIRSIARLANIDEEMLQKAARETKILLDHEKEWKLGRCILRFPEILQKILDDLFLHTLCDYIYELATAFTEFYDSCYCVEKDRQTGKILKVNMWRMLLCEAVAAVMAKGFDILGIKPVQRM

[5] = biological target: T5, MAGT1 (human, UniProt Q9H0U3 30-335, limits assumed); assay: as above
T5 construct: also called NP_115497.4
T5 sequence (looked up): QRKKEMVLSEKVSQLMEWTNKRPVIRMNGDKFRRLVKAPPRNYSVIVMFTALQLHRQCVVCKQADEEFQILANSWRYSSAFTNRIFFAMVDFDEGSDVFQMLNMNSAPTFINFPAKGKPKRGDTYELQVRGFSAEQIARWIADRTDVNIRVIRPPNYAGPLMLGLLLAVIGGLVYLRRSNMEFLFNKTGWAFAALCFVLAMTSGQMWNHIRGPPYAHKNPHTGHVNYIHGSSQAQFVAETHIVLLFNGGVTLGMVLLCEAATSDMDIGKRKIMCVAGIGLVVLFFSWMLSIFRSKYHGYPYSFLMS

[6] = biological target: T6, GALNT2 (human, UniProt Q10471 1-571, limits assumed); assay: as above
T6 construct: also called NP_001278795.1 (+1)
T6 sequence (Q10471 whole entry): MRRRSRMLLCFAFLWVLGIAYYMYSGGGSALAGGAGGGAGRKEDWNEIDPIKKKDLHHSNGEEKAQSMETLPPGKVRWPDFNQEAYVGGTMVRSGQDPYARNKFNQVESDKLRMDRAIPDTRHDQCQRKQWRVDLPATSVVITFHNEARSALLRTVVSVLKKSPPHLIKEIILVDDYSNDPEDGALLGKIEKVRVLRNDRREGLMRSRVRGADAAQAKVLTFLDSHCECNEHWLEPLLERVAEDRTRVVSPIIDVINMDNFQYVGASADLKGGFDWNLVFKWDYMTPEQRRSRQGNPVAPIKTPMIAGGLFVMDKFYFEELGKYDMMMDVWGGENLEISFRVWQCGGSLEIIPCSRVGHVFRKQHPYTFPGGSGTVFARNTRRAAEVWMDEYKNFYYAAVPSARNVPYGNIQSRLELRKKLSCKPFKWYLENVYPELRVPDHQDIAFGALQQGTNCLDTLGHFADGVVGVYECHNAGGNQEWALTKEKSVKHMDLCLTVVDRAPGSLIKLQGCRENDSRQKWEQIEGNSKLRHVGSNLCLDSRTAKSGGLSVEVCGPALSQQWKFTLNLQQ

[7] = biological target: T7, HADHA (human, UniProt P40939 37-763); assay: as above
T7 construct: also called NP_000173.2
T7 sequence (P40939 37-763 limits assumed): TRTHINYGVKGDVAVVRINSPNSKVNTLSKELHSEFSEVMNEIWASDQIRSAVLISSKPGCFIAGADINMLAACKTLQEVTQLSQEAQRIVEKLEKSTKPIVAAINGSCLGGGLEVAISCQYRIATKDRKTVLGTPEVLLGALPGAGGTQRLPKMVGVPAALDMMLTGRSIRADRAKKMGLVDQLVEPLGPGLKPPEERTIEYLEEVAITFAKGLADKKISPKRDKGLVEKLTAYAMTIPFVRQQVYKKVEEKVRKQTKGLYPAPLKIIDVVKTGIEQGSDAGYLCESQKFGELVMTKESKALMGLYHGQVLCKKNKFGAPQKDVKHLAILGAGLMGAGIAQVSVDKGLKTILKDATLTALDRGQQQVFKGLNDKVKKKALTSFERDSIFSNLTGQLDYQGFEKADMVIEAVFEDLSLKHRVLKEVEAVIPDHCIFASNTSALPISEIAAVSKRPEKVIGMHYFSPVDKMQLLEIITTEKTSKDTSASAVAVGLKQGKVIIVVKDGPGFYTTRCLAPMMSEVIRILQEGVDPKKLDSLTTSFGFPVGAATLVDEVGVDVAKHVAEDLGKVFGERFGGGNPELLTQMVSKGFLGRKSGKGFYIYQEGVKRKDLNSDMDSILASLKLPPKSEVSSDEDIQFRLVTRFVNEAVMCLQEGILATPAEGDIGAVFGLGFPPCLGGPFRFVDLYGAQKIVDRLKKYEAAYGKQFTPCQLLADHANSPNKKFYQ

B1: C-terminal FLAG tagged B3GNT2 (enzyme, human, UniProt Q9NY97 1-397, looked up)
chain: MSVGRRRIKLLGILMMANVFIYFIMEVSKSSSQEKNGKGEVIIPKEKFWKISTPPEAYWNREQEKLNRQYNPILSMLTNQTGEAGRLSNISHLNYCEPDLRVTSVVTGFNNLPDRFKDFLLYLRCRNYSLLIDQPDKCAKKPFLLLAIKSLTPHFARRQAIRESWGQESNAGNQTVVRVFLLGQTPPEDNHPDLSDMLKFESEKHQDILMWNYRDTFFNLSLKEVLFLRWVSTSCPDTEFVFKGDDDVFVNTHHILNYLNSLSKTKAKDLFIGDVIHNAGPHRDKKLKYYIPEVVYSGLYPPYAGGGGFLYSGHLALRLYHITDQVHLYPIDDVYTGMCLQKLGLVPEKHKGFRTFDIEEKNKNNICSYVDLMLVHSRKPQEMIDIWSQLQSAHLKC
notes: FLAG-tagged ORF overexpressed in cells; pulled down from lysate with mouse anti-FLAG; also called C-FLAG B3GNT2; C-term flag; not shown: C-terminal FLAG tag
[1]
  co-IP mass spectrometry count: 15

B2: C-terminal FLAG tagged B3GNT2 (enzyme, human, UniProt Q9NY97 1-397, looked up)
chain: MSVGRRRIKLLGILMMANVFIYFIMEVSKSSSQEKNGKGEVIIPKEKFWKISTPPEAYWNREQEKLNRQYNPILSMLTNQTGEAGRLSNISHLNYCEPDLRVTSVVTGFNNLPDRFKDFLLYLRCRNYSLLIDQPDKCAKKPFLLLAIKSLTPHFARRQAIRESWGQESNAGNQTVVRVFLLGQTPPEDNHPDLSDMLKFESEKHQDILMWNYRDTFFNLSLKEVLFLRWVSTSCPDTEFVFKGDDDVFVNTHHILNYLNSLSKTKAKDLFIGDVIHNAGPHRDKKLKYYIPEVVYSGLYPPYAGGGGFLYSGHLALRLYHITDQVHLYPIDDVYTGMCLQKLGLVPEKHKGFRTFDIEEKNKNNICSYVDLMLVHSRKPQEMIDIWSQLQSAHLKC
notes: FLAG-tagged ORF overexpressed in A375 cells; pulled down from the lysate with mouse anti-FLAG; also called C-FLAG B3GNT2; C-term flag; not shown: C-terminal FLAG tag
[2]
  co-IP/MS count, C-term flag: 4

B3: N-terminal FLAG tagged B3GNT2 (enzyme, human, UniProt Q9NY97 1-397, looked up)
chain: MSVGRRRIKLLGILMMANVFIYFIMEVSKSSSQEKNGKGEVIIPKEKFWKISTPPEAYWNREQEKLNRQYNPILSMLTNQTGEAGRLSNISHLNYCEPDLRVTSVVTGFNNLPDRFKDFLLYLRCRNYSLLIDQPDKCAKKPFLLLAIKSLTPHFARRQAIRESWGQESNAGNQTVVRVFLLGQTPPEDNHPDLSDMLKFESEKHQDILMWNYRDTFFNLSLKEVLFLRWVSTSCPDTEFVFKGDDDVFVNTHHILNYLNSLSKTKAKDLFIGDVIHNAGPHRDKKLKYYIPEVVYSGLYPPYAGGGGFLYSGHLALRLYHITDQVHLYPIDDVYTGMCLQKLGLVPEKHKGFRTFDIEEKNKNNICSYVDLMLVHSRKPQEMIDIWSQLQSAHLKC
notes: Bait of the co-IP; pulled down with mouse anti-FLAG (Millipore Sigma F3165) from cell lysate; also called N-FLAG B3GNT2; N-term FLAG; not shown: N-terminal FLAG tag
[3]
  co-IP mass spectrometry count: 0
[4]
  co-IP mass spectrometry count: 0
[5]
  co-IP mass spectrometry count: 0
[6]
  co-IP mass spectrometry count: 0
[7]
  co-IP mass spectrometry count: 0
